In PMC10397247 one finds interaction score data, which are given here for two molecules.

Common to all, as to experiment: two-hybrid library CCNG1;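 note: natural log of median RNA to DNA barcode read ratio; higher means stronger binding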
In one assay the target is T1, 4H2518-bA.
T1 chain: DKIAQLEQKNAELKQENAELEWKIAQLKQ

For another assay, the target named is T2, 4H349-bA.
T2 chain: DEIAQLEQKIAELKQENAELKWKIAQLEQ

The next assay addresses T3, 4H3297-bA.
T3 chain: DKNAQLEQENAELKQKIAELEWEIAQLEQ

For the next assay, the target named is T4, 4H2760-bA.
T4 chain: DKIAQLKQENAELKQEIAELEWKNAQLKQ

For another assay, the target named is T5, 4H796-bA.
T5 chain: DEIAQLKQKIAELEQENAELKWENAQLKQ

A further assay deals with T6, 4H730-bA.
T6 chain: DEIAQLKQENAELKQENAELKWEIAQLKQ

For the next assay, the target named is T7, 4H264-bA.
T7 chain: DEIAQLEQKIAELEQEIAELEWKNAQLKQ

The target in a further assay is T8, 4H56-bA.
T8 chain: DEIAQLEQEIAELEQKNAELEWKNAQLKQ

The next assay addresses T9, 4H3041-bA.
T9 chain: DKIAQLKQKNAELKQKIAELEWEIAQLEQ

Another assay concerns the target T10, 4H3381-bA.
T10 chain: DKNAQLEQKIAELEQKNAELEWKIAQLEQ

The target of the next assay is T11, 4H932-bA.
T11 chain: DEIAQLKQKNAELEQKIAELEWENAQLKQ

Another assay concerns the target T12, 4H3364-bA.
T12 chain: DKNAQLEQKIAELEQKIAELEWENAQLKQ

Another assay addresses T13, 4H2253-bA.
T13 chain: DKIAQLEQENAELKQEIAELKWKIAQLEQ

The next assay has as its target T14, 4H949-bA.
T14 chain: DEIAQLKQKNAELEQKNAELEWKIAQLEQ

The target of the next assay is T15, P6bH1.
T15 chain: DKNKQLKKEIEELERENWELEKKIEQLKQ

A further assay has as its target T16, 4H2931-bA.
T16 chain: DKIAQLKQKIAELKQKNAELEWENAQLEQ

The target in the next assay is T17, 4H2444-bA.
T17 chain: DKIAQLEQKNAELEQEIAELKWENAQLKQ

A further assay concerns the target T18, 4H2859-bA.
T18 chain: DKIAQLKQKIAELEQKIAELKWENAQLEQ

Another assay addresses T19, 4H2585-bA.
T19 chain: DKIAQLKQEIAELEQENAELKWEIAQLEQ

The target of another assay is T20, 4H235-bA.
T20 chain: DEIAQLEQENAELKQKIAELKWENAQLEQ

The target of the next assay is T21, P8A-bP.
T21 chain: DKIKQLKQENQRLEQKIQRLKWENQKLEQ

A further assay addresses T22, P5A-bP.
T22 chain: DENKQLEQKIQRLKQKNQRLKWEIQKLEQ

Another assay has as its target T23, P3A-bP.
T23 chain: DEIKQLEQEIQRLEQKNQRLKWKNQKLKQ

A further assay concerns the target T24, P4A-bP.
T24 chain: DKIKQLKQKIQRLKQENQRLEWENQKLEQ

The target in the next assay is T25, P6A-bP.
T25 chain: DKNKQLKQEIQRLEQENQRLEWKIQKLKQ

Another assay has as its target T26, P9A-bP.
T26 chain: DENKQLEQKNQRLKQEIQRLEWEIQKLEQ

The next assay has as its target T27, P7A-bP.
T27 chain: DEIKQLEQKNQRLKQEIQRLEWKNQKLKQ

For the molecule DKIAQLEQENAELKQEIAELKWKIAQLEQ [4H2253-bA], the interaction score is 0.247 in the assay with 4H2518-bA; -0.459 in the assay with 4H349-bA; 0.145 in the assay with 4H3297-bA; 0.778 with 4H2760-bA; -1.65 with 4H796-bA; -0.707 with 4H730-bA. Further, the interaction score with 4H264-bA was -0.996; in the assay with 4H56-bA, -0.0723; with 4H3041-bA it was 0.651; in the assay with 4H3381-bA, -0.743; in the assay with 4H932-bA it was -0.529; in the assay with 4H3364-bA, -0.504. The interaction score with 4H2253-bA is 1.28; in the assay with 4H949-bA, -0.968; in the assay with P6bH1 it was -1.05; with 4H2931-bA, -0.566; with 4H2444-bA, 0.026; with 4H2859-bA, -0.839. Further, the interaction score with 4H2585-bA was -0.557; in the assay with 4H235-bA, 0.641.
As for DEIKQLEQEIQRLEQKNQRLKWKNQKLKQ [P3A-bP], the interaction score is -0.641 with P8A-bP; -0.806 with P5A-bP; -0.848 with P3A-bP; 0.89 in the assay with P4A-bP; -0.316 in the assay with P6A-bP; -0.126 with P9A-bP. For the same molecule, the interaction score with P7A-bP is -0.807.
